From patent US11433139B2, “Peptide vaccines against interleukin-31” (Zoetis Services LLC, priority 2018, dated 2022)

System: feline IL-31
Experiment: Inhibition of feline IL-31 induced pSTAT3 signaling in feline FCWF4 macrophage-like cells
Type: cell-based
Conditions: 0.2 μg/mL feline IL-31, pSTAT3, FCWF4 cells (FIG. 3)
Method in brief: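 DH-82 cells primed with canine IFN-γ 10 ng/mL for 24 h, FCWF4 with feline IFN-γ 125 ng/mL for 96 h, then serum-starved 2 h. mAb pre-incubated 1 h with 1 μg/mL canine or 0.2 μg/mL feline IL-31, cells stimulated 5 min; pSTAT3 by AlphaLISA SureFire, IC50 as half-maximal signalling reduction.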

B1: 15H05: mouse anti IL-31 monoclonal antibody, VH SEQ ID NO: 67, VL SEQ ID NO: 69 (antibody, listed as Mus musculus, V domains shown)
VH: QVQLQQSAAELARPGASVKMSCKTSGYTFTSYTIHWIKQRPGQGLEWIGNINPTSGYTENNQRFKDKTTLTVDRSSNTAYLQLHSLTSEDSAVYFCARWGFKYDGEWSFDVWGAGTTVTVSS
VL: DIQMNQSPSSLSASLGDTITVTCRASQGISIWLSWYQQKPGNIPKVLINKASNLHIGVPPRFSGSGSGTHFTLTITSLQPEDIATYYCLQSQTYPLTFGGGTKLEIN
potency (IC50) against feline IL-31 in feline FCWF4 cells: slight increase in IC50
